Substitutions are numbered along the chain they refer to. Blank lines part the entries; values can stand above or below the binder they belong to.
What was measured:
[1] = molecular target: T1, human proGDF11 (human, UniProt O95390 25-407, biotinylated (NHS-PEG4-Biotin), site not stated); assay: cell-based or functional assay
T1 sequence: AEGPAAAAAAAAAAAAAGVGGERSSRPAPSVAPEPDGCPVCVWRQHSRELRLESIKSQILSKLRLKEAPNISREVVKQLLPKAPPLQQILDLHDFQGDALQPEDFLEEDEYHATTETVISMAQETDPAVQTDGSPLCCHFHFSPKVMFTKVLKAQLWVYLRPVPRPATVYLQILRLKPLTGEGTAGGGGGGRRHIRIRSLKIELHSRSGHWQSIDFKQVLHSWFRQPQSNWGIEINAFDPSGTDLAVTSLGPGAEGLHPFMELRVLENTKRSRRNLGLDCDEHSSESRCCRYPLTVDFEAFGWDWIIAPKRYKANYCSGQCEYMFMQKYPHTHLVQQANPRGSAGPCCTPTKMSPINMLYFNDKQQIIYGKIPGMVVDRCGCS

[2] = molecular target: T2, human latent GDF8 (human, UniProt O14793 24-375, biotinylated (immobilized on streptavidin biosensors), site not stated); assay: BLI (ForteBio Octet QKe), antigen on streptavidin biosensor, antibody in solution
T2 construct: also called human latent Myostatin
T2 sequence: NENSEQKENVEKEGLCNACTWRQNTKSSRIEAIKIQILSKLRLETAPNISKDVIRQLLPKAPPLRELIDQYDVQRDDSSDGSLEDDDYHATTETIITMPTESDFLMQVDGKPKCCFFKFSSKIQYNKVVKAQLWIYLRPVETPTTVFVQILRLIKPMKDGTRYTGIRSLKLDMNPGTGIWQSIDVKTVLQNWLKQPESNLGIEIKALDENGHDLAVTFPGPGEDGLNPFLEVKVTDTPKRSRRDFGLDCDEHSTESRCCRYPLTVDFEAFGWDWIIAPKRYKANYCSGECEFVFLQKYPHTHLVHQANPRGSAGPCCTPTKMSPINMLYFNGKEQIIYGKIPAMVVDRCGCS

[3] = molecular target: T3, human proGDF8 (human, UniProt O14793 24-375, biotinylated, site not stated); assay: as above
T3 construct: also called hu proGDF8; human proMyostatin
T3 sequence: T2 sequence

[4] = molecular target: T4, human proActivin A (human, UniProt P08476 21-426, biotinylated (immobilized on streptavidin biosensors), site not stated); assay: as above
T4 construct: also called human Activin A; Inhibin-beta A pro-protein
T4 sequence: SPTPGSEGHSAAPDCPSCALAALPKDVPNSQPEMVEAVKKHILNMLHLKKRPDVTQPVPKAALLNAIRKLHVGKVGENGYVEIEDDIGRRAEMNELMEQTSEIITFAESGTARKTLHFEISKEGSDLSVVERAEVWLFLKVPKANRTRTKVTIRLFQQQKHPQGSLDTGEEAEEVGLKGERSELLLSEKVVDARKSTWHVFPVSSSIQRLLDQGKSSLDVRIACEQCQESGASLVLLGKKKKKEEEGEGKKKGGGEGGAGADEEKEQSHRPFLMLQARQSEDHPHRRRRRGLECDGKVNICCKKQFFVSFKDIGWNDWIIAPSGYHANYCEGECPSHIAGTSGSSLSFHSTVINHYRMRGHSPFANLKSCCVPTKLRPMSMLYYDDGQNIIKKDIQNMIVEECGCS

[5] = molecular target: T5, murine proGDF11 (mouse, UniProt Q9Z1W4 25-405, biotinylated, site not stated); assay: BLI (ForteBio Octet)
T5 construct: also called mu proGDF11
T5 sequence: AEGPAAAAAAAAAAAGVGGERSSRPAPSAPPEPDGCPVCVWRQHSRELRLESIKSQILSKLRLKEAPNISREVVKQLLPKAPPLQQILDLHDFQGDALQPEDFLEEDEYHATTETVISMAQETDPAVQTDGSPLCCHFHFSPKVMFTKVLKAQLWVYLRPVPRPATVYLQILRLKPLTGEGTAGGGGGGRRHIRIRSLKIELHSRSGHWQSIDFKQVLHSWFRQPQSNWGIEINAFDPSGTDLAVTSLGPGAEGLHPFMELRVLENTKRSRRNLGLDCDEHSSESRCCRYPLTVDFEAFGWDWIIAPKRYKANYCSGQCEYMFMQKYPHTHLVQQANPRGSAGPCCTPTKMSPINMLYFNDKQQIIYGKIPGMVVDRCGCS

EC50, proGDF11 activation assay at 50 nM proGDF11 [1]: 27.5 nM
binding result [2]: no binding (tested: 50 µg/mL)
binding result [3]: no binding (tested: 50 µg/mL)
binding result [4]: no binding (tested: 50 µg/mL)
Kd [5]: 1.73 nM
B1: GDF11 Inh-2 (antibody, V domains shown)
VH: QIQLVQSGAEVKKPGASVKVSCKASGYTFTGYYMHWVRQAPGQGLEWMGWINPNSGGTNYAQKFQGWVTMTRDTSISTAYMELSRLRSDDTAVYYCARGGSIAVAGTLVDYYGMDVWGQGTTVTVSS
VL: DIQMTQSPSSLSASVGDRVTITCQASQDISNYLNWYQQKPGKAPKLLIYDASNLETGVPSRFSGSGSGTDFTLTISSLQPEDVATYYCQKYSTAPLTFGGGTKVEIKR
notes: also called Clone GDF11 Inh-2

EC50, proGDF11 activation assay at 50 nM proGDF11 [1]: 26.7 nM
binding result [2]: no binding (tested: 50 µg/mL)
binding result [3]: no binding (tested: 50 µg/mL)
binding result [4]: no binding (tested: 50 µg/mL)
B2: GDF11 Inh-4 (antibody, V domains shown)
VH: QVQLVQSGAEVKKPGASVKVSCKASGYTFTSYGISWVRQAPGQGLEWMGWISAYNGNTNYAQKLQGRVTMTTDTSTSTAYMELRSLRSDDTAVYYCARTPPLWFGEYGAFDIWGQGAMVTVSS
VL: B1 VL with E81D, V83F, K90Q, Y91S, S92Y, A94T, L96I, G100Q, K103R, V104L
notes: also called Clone GDF11 Inh-4
